In article PMC12041529:

Assay: western blot, co-transfected HEK293T
Conditions: glycan lost; control: Flag-GPNMB (WT)

B1: glycoprotein nonmetastatic melanoma protein B (GPNMB): GPNMB296Q (protein)
parent chain: MECLYYFLGFLLLAARLPLDAAKRFHDVLGNERPSAYMREHNQLNGWSSDENDWNEKLYPVWKRGDMRWKNSWKGGRVQAVLTSDSPALVGSNITFAVNLIFPRCQKEDANGNIVYEKNCRNEAGLSADPYVYNWTAWSEDSDGENGTGQSHHNVFPDGKPFPHHPGWRRWNFIYVFHTLGQYFQKLGRCSVRVSVNTANVTLGPQLMEVTVYRRHGRAYVPIAQVKDVYVVTDQIPVFVTMFQKNDRNSSDETFLKDLPIMFDVLIHDPSHFLNYSTINYKWSFGDNTGLFVSTNHTVNHTYVLNGTFSLNLTVKAAAPGPCPPPPPPPRPSKPTPSLATTLKSYDSNTPGPAGDNPLELSRIPDENCQINRYGHFQATITIVEGILEVNIIQMTDVLMPVPWPESSLIDFVVTCQGSIPTEVCTIISDPTCEITQNTVCSPVDVDEMCLLTVRRTFNGSGTYCVNLTLGDDTSLALTSTLISVPDRDPASPLRMANSALISVGCLAIFVTVISLLVYKKHKEYNPIENSPGNVVRSKGLSVFLNRAKAVFFPGNQEKDPLLKNQEFKGVS
  other: SNAP29 protein level: decreases
